Data from FireProtDB (doi:10.1093/hmg/ddv370).

B1: Guanylyl cyclase-activating protein 1, P43080 (parent)
chain: MGNVMEGKSVEELSSTECHQWYKKFMTECPSGQLTLYEFRQFFGLKNLSPSASQYVEQMFETFDFNKDGYIDFMEYVAALSLVLKGKVEQKLRWYFKLYDVDGNGCIDRDELLTIIQAIRAINPCSDTTMTAEEFTDTVFSKIDVNGDGELSLEEFIEGVQKDQMLLDTLTRSLDLTRIVRRLQNGEQDEEGADEAAEAAG

Variants of: B1
Conditions: Homo sapiens; pH 7.5; Thermal; CD; Tris-HCl; KCl; transition: 2; whole UniProt chain shown

Variant	change of melting temperature, mutant - wild type (higher = more stable)
I107T	-8.1 °C
L84F	-9.3 °C

Same assay, conditions: Homo sapiens; pH 7.5; Thermal; CD; Tris-HCl; KCl; transition: 3; whole UniProt chain shown

Variant	change of melting temperature, mutant - wild type (higher = more stable)
I107T	-8.1 °C
